Results: US20160289280A1, “Fusion protein of recombinant ganoderma immunoregulatory protein and human serum albumin, preparation method thereof, and application thereof” (priority 2013, published 2016)
Marks after values point to notes of the source that are not given here.

B1: rLZ-8-HSA: fusion protein of ganoderma immunoregulatory protein (LZ-8) and human serum albumin, linker GGGGSS, SEQ ID NO. 1 (protein)
chain: SDTALIFRLAWDVKKLSFDYTPNWGRGNPNNFIDTVTFPKVLTDKAYTYRVAVSGRNLGVKPSYAVESDGSGKVNFLEYNSGYGIADTNTIGVFVVDPDTNNDFIIAGWNGGGGSSMKWVTFISLLFLFSSAYSRGVFRRDAHKSEVAHRFKDLGEENFKALVLIAFAGYLGGCPFEDHVKLVNEVTEFAKTCVADESAENCDKSLHTLFGDKLCTVATLRETYGEMADCCAKGEPERNECFLGHKDDNPNLPRLVRPEVDVMCTAFHDNEETFLKKYLYEIARRHPYFYAPELLFFAKRYKAAFTECCGAADKAACLLPKLDELRDEGKASSAKGRLKCASLGKFGERAFKAWAVARLSGRFPKAEFAEVSKLVTDLTKVHTECCHGDLLECADDRADLAKYICENGDSISSKLKECCEKPLLEKSHCIAEVENDEMPADLPSLAADFVESKDVCKNYAEAKDVFLGMFLYEYARRHPDYSVVLLLRLAKTYETTLEKCCAAADPHECYAKVFDEFKPLVEEPGNLIKGNCELFEGLGEYKFGNALLVRYTKKVPGVSTPTLVEVSRNLGKVGSKCCKHPEAKRMPCAEDYLSVVLNGLCVLHEKTPVSDRVTKCCTESLVNRRPCFSALEVDETYVPKEFNAETFTFHADICTLSEKERGIKKGTALVELVKHKPKATKEGLKAVMDDFAAFVEKCCKADDKETCFAEEGKKLVAASGAALGL
modifications: rLZ-8-HSA sequence
B2: rLZ-8: recombinant ganoderma immunoregulatory protein which is not fused, comparator (protein, UniProt P14945 2-111, looked up)
Immunomodulatory protein Ling …: SDTALIFRLAWDVKKLSFDYTPNWGRGNPNNFIDTVTFPKVLTDKAYTYRVAVSGRNLGVKPSYAVESDGSQKVNFLEYNSGYGIADTNTIQVFVVDPDTNNDFIIAQWN

Key:
[1] = tested on: mouse melanoma cells B16-F10; assay: mouse B16-F10 transplanted tumor model, in situ tumor weight; format: in vivo; details: tail vein once a day, 28 days
Protocol: In vivo experiment: firstly, establishing a mouse tumor mould, wherein mouse melanoma cells B16-F10 is cultured with the DMEM comprising 10% fetal calf serum at 37° C. in a CO2 incubation device; slowly subcutaneously injecting 200 μl B16-F10 cell suspension (comprising 1×10^7 cells) with a 1 ml injector at mouse dorsal-ventral skin, so as to establish a mouse transplanted tumor mould.

leukocytes = assay: treatment of rat models with leucopenia caused by cyclophosphamide, leukocyte count; format: in vivo; details: for leukocyte number before: baseline after CP modeling, before treatment
From the text: Utilizing Wistar rats in the experiments, wherein 18 rats weighing about 100 g are utilized. […] The experiment has an rLZ-8 low-dosage group, an rLZ-8 middle-dosage group, an rLZ-8 high-dosage group, an rLZ-8-HSA low-dosage group, an rLZ-8-HSA middle-dosage group, an rLZ-8-HSA high-dosage group, and a positive medicine control group (utilizing the […]®). […] On the third day, the blood is sampled from the tail vein, and the leukocytes are counted by a cytoanalyzer. After successful modeling, the rats of each the group are respectively treated with the rLZ-8, the three kinds of the fusion proteins, or the positive medicine (the […]®) with the corresponding dosage, and the equal sterile saline is given to the rats of the normal control and a CP group. The blood is sampled from the tail vein on the first, third and seventh treatment days, and the leukocytes are counted by the cytoanalyzer. Medicine efficacy is analyzed according to a number difference of the leukocyte between before and after the treatment.

[2] = tested on: mouse S180 Ehrlich ascites tumor; assay: in vitro inhibition effect on mouse S180 Ehrlich ascites tumor, WST-1 method; format: cell-based; details: 24 h, x ± s, n = 9
Protocol: In vitro experiment: testing the inhibition effect of the fusion protein rLZ-8-HSA on the mouse 5180 Ehrlich ascites tumor through the WST-1 method, preparing tissue suspension of the mouse S180 Ehrlich ascites tumor; adding 100 μl the tissue suspension into 900 μl 2% glacial acetic acid and counting with a microscope; adjusting a tissue concentration to 2×10^5/ml with DMEM comprising 2% calf serum; respectively preparing the fusion protein rLZ-8-HSA and the rLZ-8 with same molar concentration gradient, wherein there are 3 gradient concentrations, each concentration occupies 9 wells with 100 μl per well; adding tissue suspension with a concentration of 2×10^5/ml with 100 μl per well; shaking for evenly mixing, and then putting into a 37° C., 5% CO2 incubation device to incubate for 24 h; after incubation, adding WST-1 with 20 μl per well; putting into the 37° C., 5% CO2 incubation device to incubate for 3 h, then testing OD450 (with a BIO-RAD); wherein results are listed in table 5.

[3] = high-dosage 60 μg/kg (LZ-8 dosage)
[4] = low-dosage 15 μg/kg (LZ-8 dosage)
[5] = middle-dosage 30 μg/kg (LZ-8 dosage)

| Molecule | tumor inhibition rate ([1]; high-dosage 492 μg/kg (LZ-8)) | tumor weight ([1]; high-dosage 492 μg/kg (LZ-8)) | tumor inhibition rate ([1]; low-dosage 123 μg/kg (LZ-8)) | tumor weight ([1]; low-dosage 123 μg/kg (LZ-8)) | tumor inhibition rate ([1]; middle-dosage 246 μg/kg (LZ-8)) | tumor weight ([1]; middle-dosage 246 μg/kg (LZ-8)) | leukocyte number on the first treatment day (leukocytes; [3]) | leukocyte number on the seventh treatment day (leukocytes; [3]) | leukocyte number on the third treatment day (leukocytes; [3]) | leukocyte number before (leukocytes; [3]) | leukocyte number on the first treatment day (leukocytes; [4]) | leukocyte number on the seventh treatment day (leukocytes; [4]) | leukocyte number on the third treatment day (leukocytes; [4]) | leukocyte number before (leukocytes; [4]) | leukocyte number on the first treatment day (leukocytes; [5]) | leukocyte number on the seventh treatment day (leukocytes; [5]) | leukocyte number on the third treatment day (leukocytes; [5]) | leukocyte number before (leukocytes; [5]) | OD450, inhibition effect on mouse S180 Ehrlich ascites tumor ([2]; protein 5.0 × 10^−9 mol/L) | OD450, inhibition effect on mouse S180 Ehrlich ascites tumor ([2]; protein 10.0 × 10^−9 mol/L) | also measured |
| --- | --- | --- | --- | --- | --- | --- | --- | --- | --- | --- | --- | --- | --- | --- | --- | --- | --- | --- | --- | --- | --- |
| B1 | 89.51 ± 0.88 % | 0.13 ± 0.05 g | 71.77 ± 0.31 % | 0.35 ± 0.11 g | 78.22 ± 0.47 % | 0.27 ± 0.14 g | 8.4e+09 L⁻¹ | 1.55e+10 L⁻¹ | 1.44e+10 L⁻¹ | 3.33e+09 L⁻¹ | 8.5e+09 L⁻¹ | 1.32e+10 L⁻¹ | 1.08e+10 L⁻¹ | 3.11e+09 L⁻¹ | 9.2e+09 L⁻¹ | 1.34e+10 L⁻¹ | 1.198e+10 L⁻¹ | 2.89e+09 L⁻¹ | 0.408 ± 0.21 | 0.233 ± 0.18 | leukocyte number relative to the rLZ-8 groups with the same dosage (leukocytes; first treatment day): about 2 times; OD450, inhibition effect on mouse S180 Ehrlich ascites tumor ([2]; protein 15.0 × 10^−9 mol/L): 0.127 ± 0.15 |
| B2 | 83.04 ± 0.51 % | 0.25 ± 0.04 g | 56.72 ± 0.41% | 0.53 ± 0.21 g | 64.91 ± 0.77% | 0.43 ± 0.17 g | 5.4e+09 L⁻¹ | 1.45e+10 L⁻¹ | 9.6e+09 L⁻¹ | 4.09e+09 L⁻¹ | 4.6e+09 L⁻¹ | 1.12e+10 L⁻¹ | 9.3e+09 L⁻¹ | 3.71e+09 L⁻¹ | 5.1e+09 L⁻¹ | 1.278e+10 L⁻¹ | 9.7e+09 L⁻¹ | 3.12e+09 L⁻¹ | 0.453 ± 0.23 | 0.366 ± 0.31 | OD450, inhibition effect on mouse S180 Ehrlich ascites tumor ([2]; protein 15.0 × 10^−9 mol/L): 0.345 ± 0.27 |
